# Data reported in the supplement of paper PMC12764529.
# ± gives the half width of the 95% confidence interval.
# Columns and labels:
# [1] = folding stability dG unfold (combined trypsin and chymotrypsin); higher = more stable
# How it was run: (§1)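 Bayesian fitting of sequencing counts gave K50 for each design. Unfolding free energy followed by setting this against a sequence-predicted unfolded-state K50 and a shared folded-state K50, either per protease or with trypsin and chymotrypsin combined. The designs, under 80 residues and lacking cysteine, were digested in a PA-tagged cDNA display format at 11 threefold-diluted protease concentrations and without protease, and only those with AlphaFold2 dimer inter-PAE above 15 were kept.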
# [2] = folding stability dG unfold from trypsin proteolysis; higher = more stable
# How it was run: as §1
# [3] = folding stability dG unfold from chymotrypsin proteolysis; higher = more stable
# How it was run: as §1
sequence,measurement,setting,value
SAGGSLRQLIRALFKKKGIPIEPEKVDPNWVTFKVPNKDVKIDLPDGNKIEIKPNGYVRIRIPPDDLSAGGS [r8_297_TrROS],folding stability dG unfold,[1],-0.1 ± 0.4 kcal/mol
same,folding stability dG unfold,[2],-0.172 ± 0.68 kcal/mol
same,folding stability dG unfold,[3],-0.354 ± 0.89 kcal/mol
SAGGSLTAEWDTSTGTVRLTFPDGSVVELPFPTSGAVVRATVDGDKVTIEVLDKDNPKVVARFTFDLGSAGG [r13_938_TrMRF],folding stability dG unfold,[1],4.37 ± 0.19 kcal/mol
same,folding stability dG unfold,[2],3.79 ± 0.2 kcal/mol
same,folding stability dG unfold,[3],4.74 ± 0.15 kcal/mol
SAGGSLVTTEFPGVTITTDPATGVLTVEASPEEVERLIEALGPEFNPVEIRRLPDGSYLLTLPVTPPSAGGS [r8_415_JUSTAS],folding stability dG unfold,[1],2.1 ± 0.03 kcal/mol
same,folding stability dG unfold,[2],2.13 ± 0.03 kcal/mol
same,folding stability dG unfold,[3],2.042 ± 0.02 kcal/mol
SAGGSMALVEIERPGGEGALRTVDTSNPAAVKAFVDAVPEDEPVRVYTDDPAVVELFKEAGFDEVLLESAGG [r13_476_JUSTAS],folding stability dG unfold,[1],0.55 ± 0.096 kcal/mol
same,folding stability dG unfold,[2],-0.0819 ± 0.053 kcal/mol
same,folding stability dG unfold,[3],0.775 ± 0.087 kcal/mol
SAGGSMAPDVKVEVEVFPDGLVLFRLTLPDGRPFLALAEVREDGRVKVVVFDLYPGEKVEFEIPIKSAGGSA [r2_99_TrMRF],folding stability dG unfold,[1],3.28 ± 0.14 kcal/mol
same,folding stability dG unfold,[2],2.52 ± 0.12 kcal/mol
same,folding stability dG unfold,[3],3.7 ± 0.045 kcal/mol
SAGGSMELELEVKNPETGKTYKVKITSFDEETGEVTVEIEDEETGETKTLTFKVEPVELVEEEEEESAGGSA [r2_147_TrROS_Hall],folding stability dG unfold,[1],3.08 ± 0.076 kcal/mol
same,folding stability dG unfold,[2],2.38 ± 0.1 kcal/mol
same,folding stability dG unfold,[3],3.28 ± 0.037 kcal/mol
SAGGSMERTVELTYTFKDKPIKITITVTTDPETGTVTVPIEIETEDEKIKEPALEKAKELAEELLASAGGSA [r2_259_JUSTAS],folding stability dG unfold,[1],0.301 ± 0.12 kcal/mol
same,folding stability dG unfold,[2],0.133 ± 0.065 kcal/mol
same,folding stability dG unfold,[3],0.26 ± 0.13 kcal/mol
SAGGSMETRETLEERTLPNGEKVLTTTTTYPDGTVTTRTTVIHGGTSTVTTTTTPAAPVPGPAPARASAGGS [r16_523_JUSTAS],folding stability dG unfold,[1],1.55 ± 0.085 kcal/mol
same,folding stability dG unfold,[2],0.422 ± 0.028 kcal/mol
same,folding stability dG unfold,[3],2.01 ± 0.059 kcal/mol
SAGGSMEVKVEVVKDEETKEYYVKVEIRDPKTKKTITLEYKVKEEDKEEALKKAKELAEELAKKGISAGGSA [r2_221_TrROS_Hall],folding stability dG unfold,[1],3.48 ± 0.1 kcal/mol
same,folding stability dG unfold,[2],3.27 ± 0.14 kcal/mol
same,folding stability dG unfold,[3],3.64 ± 0.077 kcal/mol
SAGGSMGKTPDGGEVEFFEKPEENLIFAVVKHPDGSYYVAVFKKDEDKIELIDVKEVPEGEIEELASAGGSA [r2_336_TrMRF],folding stability dG unfold,[1],1.89 ± 0.13 kcal/mol
same,folding stability dG unfold,[2],1.26 ± 0.089 kcal/mol
same,folding stability dG unfold,[3],2.07 ± 0.031 kcal/mol
SAGGSMGSKKVGEIELEVEIGDEKVKVKVTLYETESPDDSVSLTLDVDVEHPNGKKISKELFEKLFSAGGSA [r2_363_TrMRF],folding stability dG unfold,[1],1.84 ± 0.15 kcal/mol
same,folding stability dG unfold,[2],1.15 ± 0.064 kcal/mol
same,folding stability dG unfold,[3],2.14 ± 0.033 kcal/mol
SAGGSMIFETLGSEKLIKEKAEERGLDLVEYSVEGNKFFALLKDPAGKLVLTYSDEASVKKLGLDLSKLSAG [r5_12_JUSTAS],folding stability dG unfold,[1],0.299 ± 0.081 kcal/mol
same,folding stability dG unfold,[2],-0.265 ± 0.095 kcal/mol
same,folding stability dG unfold,[3],0.523 ± 0.08 kcal/mol
SAGGSMIITRDPATGLVTVYKNGKKVKTIEVPPGNPVGVSLSYNPSPNTYTVTLTTPESPVKISNLSAGGSA [r2_399_JUSTAS],folding stability dG unfold,[1],1.15 ± 0.06 kcal/mol
same,folding stability dG unfold,[2],0.855 ± 0.032 kcal/mol
same,folding stability dG unfold,[3],1.31 ± 0.083 kcal/mol
SAGGSMIPLTVTRYDPNSDKPVSTTPVVYDPETGTWTAYPPDGSRTTYALSLEDLIAALPSTWSVGPSAGGS [r16_543_JUSTAS],folding stability dG unfold,[1],0.567 ± 0.044 kcal/mol
same,folding stability dG unfold,[2],0.452 ± 0.034 kcal/mol
same,folding stability dG unfold,[3],0.599 ± 0.052 kcal/mol
SAGGSMIPRLEERVLEVEVDSEEEAEKLKKELKEKIEKEHPGVEVKFELRKLPNGKYLLTITVVIPILSAGG [r13_17_JUSTAS],folding stability dG unfold,[1],3.64 ± 0.077 kcal/mol
same,folding stability dG unfold,[2],2.89 ± 0.058 kcal/mol
same,folding stability dG unfold,[3],3.93 ± 0.041 kcal/mol
SAGGSMKIKVEYEELPNGKMVIRIDIPPEENNMTPEQVETIAKEIAEEFPNVKVETTPGSIWIRVPSAGGSA [r2_256_TrROS],folding stability dG unfold,[1],1.24 ± 0.16 kcal/mol
same,folding stability dG unfold,[2],1.38 ± 0.1 kcal/mol
same,folding stability dG unfold,[3],1.21 ± 0.2 kcal/mol
SAGGSMKITKIEIEKLPNGEYKITITKDENGNITVTVTNKNGKKKTITLKVKPEDVEEVLKELLKKSAGGSA [r2_298_TrROS_Hall],folding stability dG unfold,[1],2.73 ± 0.1 kcal/mol
same,folding stability dG unfold,[2],1.6 ± 0.051 kcal/mol
same,folding stability dG unfold,[3],3.01 ± 0.06 kcal/mol
SAGGSMKIVKIEKIDLAKLKPGDIIEVKLENGEIYRIRIEKNEDGKYTVYIYNKNGELVEEFEFDVSAGGSA [r2_323_TrROS_Hall],folding stability dG unfold,[1],3.84 ± 0.097 kcal/mol
same,folding stability dG unfold,[2],2.27 ± 0.12 kcal/mol
same,folding stability dG unfold,[3],4.25 ± 0.034 kcal/mol
SAGGSMKLTTTTPDGKPFEADVTEYPTFYKITFKVGNKEYTLLANPSTNTVDGNVDGFPFKLKLNPSAGGSA [r2_194_TrMRF],folding stability dG unfold,[1],1.25 ± 0.18 kcal/mol
same,folding stability dG unfold,[2],1.28 ± 0.1 kcal/mol
same,folding stability dG unfold,[3],1.25 ± 0.18 kcal/mol
SAGGSMKPSKVTEVTHPDGTRFTVTEYPEVPLLTLTIERPETGTTTTVKTKSREEAEKVLAELVASSAGGSA [r2_70_JUSTAS],folding stability dG unfold,[1],0.596 ± 0.11 kcal/mol
same,folding stability dG unfold,[2],0.696 ± 0.068 kcal/mol
same,folding stability dG unfold,[3],0.306 ± 0.16 kcal/mol
SAGGSMKPVKKTIVILKPSSVTEEEVKEEVVEKAKELGLKVKPIRTEVYPLPDYYLVVVEVEIEVPPESAGG [r13_351_TrMRF],folding stability dG unfold,[1],1.38 ± 0.21 kcal/mol
same,folding stability dG unfold,[2],1.56 ± 0.11 kcal/mol
same,folding stability dG unfold,[3],1.24 ± 0.072 kcal/mol
SAGGSMKTITDPGNLSEEEIKKILSKFPPNTTVTIEFPDATHTVTLNPDKIEISRDPSYPNFRITITISSAG [r5_373_JUSTAS],folding stability dG unfold,[1],1.72 ± 0.1 kcal/mol
same,folding stability dG unfold,[2],1.31 ± 0.029 kcal/mol
same,folding stability dG unfold,[3],2.01 ± 0.036 kcal/mol
SAGGSMKVEVTVTETSTLGDGTRTYTVAVLIDGTPLTFTFPFTSEEEFREAVEEWAKERGVEITLTPSSAGG [r13_750_JUSTAS],folding stability dG unfold,[1],4.25 ± 0.14 kcal/mol
same,folding stability dG unfold,[2],3.7 ± 0.084 kcal/mol
same,folding stability dG unfold,[3],4.54 ± 0.049 kcal/mol
SAGGSMPETVKVRVRNADGSLLTLEITRDADGELTVTLEVDGKTVELSLEELEKLPPGVEVVEVEPSAGGSA [r2_431_TrROS_Hall],folding stability dG unfold,[1],2.26 ± 0.18 kcal/mol
same,folding stability dG unfold,[2],1.9 ± 0.087 kcal/mol
same,folding stability dG unfold,[3],2.44 ± 0.087 kcal/mol
SAGGSMPKGQEVKIEIEHRRHNGRRYWRVSVEVPNGKDIEIPFDDPEEMPPEMKKQIENLAKEIVKSAGGSA [r2_17_TrROS],folding stability dG unfold,[1],0.874 ± 0.26 kcal/mol
same,folding stability dG unfold,[2],0.146 ± 0.11 kcal/mol
same,folding stability dG unfold,[3],1.11 ± 0.25 kcal/mol
SAGGSMQSVTSYDPNGVTYTTEFLPDEDVVTYTKTTDGTVTTTKVERLDEDGVPVPLSTSTTTLGGSAGGSA [r2_60_JUSTAS],folding stability dG unfold,[1],0.107 ± 0.16 kcal/mol
same,folding stability dG unfold,[2],0.208 ± 0.085 kcal/mol
same,folding stability dG unfold,[3],-0.217 ± 0.29 kcal/mol
SAGGSMRFKIEDINIGIIPHPPGWLLIPITVKVKFEEPDPDNGEPKTVEHEFPIMIMMPKDDLDDLSAGGSA [r2_184_TrROS],folding stability dG unfold,[1],2.44 ± 0.14 kcal/mol
same,folding stability dG unfold,[2],2.01 ± 0.072 kcal/mol
same,folding stability dG unfold,[3],2.68 ± 0.045 kcal/mol
SAGGSMSESEVVEVTVGGKPVTITVHREDNRYSAEVTLPPGVRVVLPFGGPESPEKAVEEAVRALESAGGSA [r2_92_JUSTAS],folding stability dG unfold,[1],0.425 ± 0.065 kcal/mol
same,folding stability dG unfold,[2],0.352 ± 0.036 kcal/mol
same,folding stability dG unfold,[3],0.508 ± 0.046 kcal/mol
SAGGSMSIPLKTEEDVKKAVEYIKQKLLEEGAPEGLKIDKVEVTKLPDGTYKITITFPNKTFELVGSAGGSA [r2_120_JUSTAS],folding stability dG unfold,[1],2.64 ± 0.079 kcal/mol
same,folding stability dG unfold,[2],2.56 ± 0.052 kcal/mol
same,folding stability dG unfold,[3],2.64 ± 0.047 kcal/mol
SAGGSMSPALNKKLDVEEITADEEEAKKIAKESKKPVIVTLPDGTVLRFNTDGSVTEYPLPPPELLSAGGSA [r2_34_JUSTAS],folding stability dG unfold,[1],0.958 ± 0.12 kcal/mol
same,folding stability dG unfold,[2],0.443 ± 0.07 kcal/mol
same,folding stability dG unfold,[3],1.12 ± 0.12 kcal/mol
SAGGSMSTSTLVRREIASVDPETGLRVVRVEVEEVDYGFDPKTGTVLGVSPVSPVSESVLLLPADAPPESAG [r5_903_JUSTAS],folding stability dG unfold,[1],-0.286 ± 0.23 kcal/mol
same,folding stability dG unfold,[2],-0.652 ± 0.23 kcal/mol
same,folding stability dG unfold,[3],-0.175 ± 0.22 kcal/mol
SAGGSMSVEVEVLAKVKLPNGEEVTFPVRVTYNPETGEVTVEIDLPKEVFERLKELYPDGIIAPEPSAGGSA [r2_409_TrMRF],folding stability dG unfold,[1],3.27 ± 0.048 kcal/mol
same,folding stability dG unfold,[2],2.79 ± 0.11 kcal/mol
same,folding stability dG unfold,[3],3.5 ± 0.078 kcal/mol
SAGGSMTFKAEVTPLDTFPLFDANGKPVAEVKVYTATIEFPDGSRVEIRGVEVGDELYILEIRPLDSAGGSA [r2_158_TrMRF],folding stability dG unfold,[1],2.16 ± 0.13 kcal/mol
same,folding stability dG unfold,[2],1.54 ± 0.084 kcal/mol
same,folding stability dG unfold,[3],2.32 ± 0.13 kcal/mol
SAGGSMTISYDPSTGTVTITDPTVPLNTPRSITITFPGGETFTATLTPLPDNSATATYTVVPTAGASAGGSA [r2_89_JUSTAS],folding stability dG unfold,[1],1.23 ± 0.16 kcal/mol
same,folding stability dG unfold,[2],1.26 ± 0.036 kcal/mol
same,folding stability dG unfold,[3],1.09 ± 0.1 kcal/mol
SAGGSMTTTTVTVTDPAGNTTTYTFPSSVPLEEIVEAVSKALGRPVTVLSVTTDPSGTTTVTLAVPGSAGGS [r8_285_JUSTAS],folding stability dG unfold,[1],5.17 ± 0.13 kcal/mol
same,folding stability dG unfold,[2],4.33 ± 0.3 kcal/mol
same,folding stability dG unfold,[3],5.131 ± 0.047 kcal/mol
SAGGSMTVETSISRLPDGTYTVTVTFTLKNPDGSPVGTITIPVTMSPEVLAKTPLETVVAEAVAAASAGGSA [r2_421_JUSTAS],folding stability dG unfold,[1],3.09 ± 0.077 kcal/mol
same,folding stability dG unfold,[2],2.44 ± 0.056 kcal/mol
same,folding stability dG unfold,[3],3.48 ± 0.048 kcal/mol
